Laboratory results: US11840557B2, “Wnt7 variants capable of activating g-protein coupled receptor (Gpr)124/Reck/frizzled/lipoprotein receptor-related protein (LRP)-mediated Wnt signaling” (UNIVERSITÉ LIBRE DE BRUXELLES, priority 2018, dated 2023)

Legend:
[1] = molecular target: T1, Gpr124/Reck/Fz/LRP (UniProt O70421+O95980); test: STF dual luciferase assay, Gpr124/Reck-dependent signaling in HEK293-STF cells; assay type: cell-based; details: Gpr124, RECK and Fz1 transfection
T1 construct: host or cells: HEK293-STF cells
T1 sequence (O95980 23-942 limits assumed): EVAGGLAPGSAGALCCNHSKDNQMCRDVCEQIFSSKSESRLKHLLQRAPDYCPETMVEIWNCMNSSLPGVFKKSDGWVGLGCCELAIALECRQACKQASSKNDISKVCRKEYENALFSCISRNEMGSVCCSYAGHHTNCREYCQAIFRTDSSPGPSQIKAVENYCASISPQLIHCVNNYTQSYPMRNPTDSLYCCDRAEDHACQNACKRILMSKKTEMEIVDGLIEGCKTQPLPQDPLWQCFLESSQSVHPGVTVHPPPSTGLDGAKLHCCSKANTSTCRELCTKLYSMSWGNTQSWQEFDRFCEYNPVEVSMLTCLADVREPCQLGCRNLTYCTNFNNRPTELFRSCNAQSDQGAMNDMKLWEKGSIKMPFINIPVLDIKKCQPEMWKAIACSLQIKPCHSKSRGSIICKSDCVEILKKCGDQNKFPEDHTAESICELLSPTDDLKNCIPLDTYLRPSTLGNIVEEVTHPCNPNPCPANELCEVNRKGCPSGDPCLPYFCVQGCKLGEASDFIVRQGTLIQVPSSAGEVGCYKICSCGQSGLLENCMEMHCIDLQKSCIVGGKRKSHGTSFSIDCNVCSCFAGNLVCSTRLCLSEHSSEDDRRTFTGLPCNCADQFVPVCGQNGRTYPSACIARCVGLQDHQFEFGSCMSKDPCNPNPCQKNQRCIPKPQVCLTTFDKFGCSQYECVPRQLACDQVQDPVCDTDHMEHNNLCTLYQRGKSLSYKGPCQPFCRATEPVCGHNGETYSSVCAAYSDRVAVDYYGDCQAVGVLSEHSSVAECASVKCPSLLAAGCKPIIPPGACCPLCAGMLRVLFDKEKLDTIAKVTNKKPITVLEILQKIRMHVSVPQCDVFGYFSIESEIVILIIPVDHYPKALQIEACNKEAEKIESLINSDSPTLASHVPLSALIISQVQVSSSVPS
T1 sequence (O70421 69-642): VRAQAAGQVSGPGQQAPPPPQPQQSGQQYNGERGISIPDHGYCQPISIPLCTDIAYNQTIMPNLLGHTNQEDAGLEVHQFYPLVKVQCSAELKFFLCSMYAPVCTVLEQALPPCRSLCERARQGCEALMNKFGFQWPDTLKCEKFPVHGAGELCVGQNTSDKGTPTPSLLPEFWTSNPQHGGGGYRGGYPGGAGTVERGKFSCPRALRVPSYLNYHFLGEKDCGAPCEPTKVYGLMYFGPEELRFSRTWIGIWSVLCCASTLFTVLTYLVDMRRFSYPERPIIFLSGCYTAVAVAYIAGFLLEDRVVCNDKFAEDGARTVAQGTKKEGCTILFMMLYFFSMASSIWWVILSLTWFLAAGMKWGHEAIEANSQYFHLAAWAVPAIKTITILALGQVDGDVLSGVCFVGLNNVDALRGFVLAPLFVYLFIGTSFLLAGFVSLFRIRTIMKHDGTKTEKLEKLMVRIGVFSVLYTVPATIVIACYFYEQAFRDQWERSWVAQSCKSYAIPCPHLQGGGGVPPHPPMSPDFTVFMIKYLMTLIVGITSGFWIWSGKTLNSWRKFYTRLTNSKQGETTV
T1 sequence (Q96PE1 34-1338 partner): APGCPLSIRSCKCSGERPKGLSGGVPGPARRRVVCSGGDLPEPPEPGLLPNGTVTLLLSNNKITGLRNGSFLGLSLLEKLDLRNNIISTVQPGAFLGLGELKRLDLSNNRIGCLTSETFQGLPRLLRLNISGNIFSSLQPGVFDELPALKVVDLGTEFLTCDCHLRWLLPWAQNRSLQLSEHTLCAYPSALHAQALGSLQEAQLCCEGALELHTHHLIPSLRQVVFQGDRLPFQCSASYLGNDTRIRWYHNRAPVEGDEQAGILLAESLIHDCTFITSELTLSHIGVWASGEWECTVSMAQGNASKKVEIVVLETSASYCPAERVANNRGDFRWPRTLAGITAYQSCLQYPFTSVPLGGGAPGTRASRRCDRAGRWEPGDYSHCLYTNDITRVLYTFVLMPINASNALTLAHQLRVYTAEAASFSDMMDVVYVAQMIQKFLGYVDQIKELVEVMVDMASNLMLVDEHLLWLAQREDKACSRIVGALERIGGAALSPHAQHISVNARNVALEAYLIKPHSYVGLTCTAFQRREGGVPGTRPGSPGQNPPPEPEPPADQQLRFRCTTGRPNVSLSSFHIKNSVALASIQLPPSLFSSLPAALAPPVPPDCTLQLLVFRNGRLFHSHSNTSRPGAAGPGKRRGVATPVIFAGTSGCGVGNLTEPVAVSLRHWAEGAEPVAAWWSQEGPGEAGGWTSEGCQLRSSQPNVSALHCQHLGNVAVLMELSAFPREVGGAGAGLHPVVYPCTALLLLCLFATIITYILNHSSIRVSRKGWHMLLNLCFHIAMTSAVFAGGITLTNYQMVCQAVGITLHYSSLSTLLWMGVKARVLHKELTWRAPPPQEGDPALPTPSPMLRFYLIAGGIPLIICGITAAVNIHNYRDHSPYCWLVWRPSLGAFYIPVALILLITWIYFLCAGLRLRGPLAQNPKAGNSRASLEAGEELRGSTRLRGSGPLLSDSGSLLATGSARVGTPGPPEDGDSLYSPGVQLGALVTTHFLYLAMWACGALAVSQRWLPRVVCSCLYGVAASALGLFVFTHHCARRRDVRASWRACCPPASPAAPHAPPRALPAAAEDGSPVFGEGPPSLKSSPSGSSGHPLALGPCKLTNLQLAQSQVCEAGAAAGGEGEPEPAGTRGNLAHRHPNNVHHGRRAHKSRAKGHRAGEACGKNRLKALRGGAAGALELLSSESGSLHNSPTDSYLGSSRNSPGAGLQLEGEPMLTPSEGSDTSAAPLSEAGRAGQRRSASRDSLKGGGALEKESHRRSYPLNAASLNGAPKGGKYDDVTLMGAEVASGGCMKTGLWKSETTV
T1 sequence (O75581 20-1613 partner): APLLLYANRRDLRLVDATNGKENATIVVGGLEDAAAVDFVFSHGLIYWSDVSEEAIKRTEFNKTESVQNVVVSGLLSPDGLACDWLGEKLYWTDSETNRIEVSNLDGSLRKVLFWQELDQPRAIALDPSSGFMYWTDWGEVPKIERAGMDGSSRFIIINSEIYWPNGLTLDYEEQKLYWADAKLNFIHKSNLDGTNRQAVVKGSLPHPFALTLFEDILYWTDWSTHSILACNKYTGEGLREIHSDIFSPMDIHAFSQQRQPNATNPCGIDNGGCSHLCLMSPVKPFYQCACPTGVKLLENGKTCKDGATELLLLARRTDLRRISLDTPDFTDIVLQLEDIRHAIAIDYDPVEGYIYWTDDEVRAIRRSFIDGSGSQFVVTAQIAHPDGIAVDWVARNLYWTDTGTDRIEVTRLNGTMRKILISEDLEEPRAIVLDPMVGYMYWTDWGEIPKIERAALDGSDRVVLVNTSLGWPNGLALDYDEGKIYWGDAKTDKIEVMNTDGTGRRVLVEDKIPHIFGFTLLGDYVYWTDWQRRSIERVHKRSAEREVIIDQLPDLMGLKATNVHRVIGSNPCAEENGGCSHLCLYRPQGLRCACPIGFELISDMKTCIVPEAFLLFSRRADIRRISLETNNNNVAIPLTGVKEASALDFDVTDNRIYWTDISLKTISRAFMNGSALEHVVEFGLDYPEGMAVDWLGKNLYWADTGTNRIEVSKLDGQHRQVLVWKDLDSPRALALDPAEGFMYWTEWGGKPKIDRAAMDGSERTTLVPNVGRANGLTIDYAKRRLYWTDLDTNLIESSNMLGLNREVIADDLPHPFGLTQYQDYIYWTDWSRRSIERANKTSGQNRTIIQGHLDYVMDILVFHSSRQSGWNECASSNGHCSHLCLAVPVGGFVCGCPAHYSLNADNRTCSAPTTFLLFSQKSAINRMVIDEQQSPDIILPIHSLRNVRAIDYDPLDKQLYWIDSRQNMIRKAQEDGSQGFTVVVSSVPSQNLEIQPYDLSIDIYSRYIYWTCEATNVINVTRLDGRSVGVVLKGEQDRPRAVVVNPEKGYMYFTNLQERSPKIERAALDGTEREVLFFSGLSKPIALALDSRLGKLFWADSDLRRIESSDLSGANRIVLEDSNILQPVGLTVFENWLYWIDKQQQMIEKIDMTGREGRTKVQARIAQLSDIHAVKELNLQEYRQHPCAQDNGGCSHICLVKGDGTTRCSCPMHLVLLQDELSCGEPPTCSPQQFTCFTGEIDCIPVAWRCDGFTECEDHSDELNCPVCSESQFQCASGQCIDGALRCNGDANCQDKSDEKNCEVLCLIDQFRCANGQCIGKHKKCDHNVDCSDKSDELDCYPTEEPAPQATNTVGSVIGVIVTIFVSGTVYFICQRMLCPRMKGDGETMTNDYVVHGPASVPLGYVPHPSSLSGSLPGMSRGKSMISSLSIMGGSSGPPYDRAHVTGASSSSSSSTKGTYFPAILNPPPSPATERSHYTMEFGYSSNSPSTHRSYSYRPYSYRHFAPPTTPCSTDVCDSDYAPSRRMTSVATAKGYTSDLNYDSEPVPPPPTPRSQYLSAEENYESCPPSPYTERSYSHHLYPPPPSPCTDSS
Description: Cells were plated into 96-well plates and transfected after 24 h in triplicate with Lipofectamine 2000 (Life Technologies, Carlsbad, Calif.). The amount of plasmid DNA transfected per well was optimized for each expression vector: Renilla luciferase (0.5 ng) (was kindly provided by Jeremy Nathans (John Hopkins)), Wnt ligands (20 ng), Fz receptors (5 ng), Lrp (2.5 ng), Gpr124 (10 ng), Reck (5 ng) and Dkk-1 (10 ng) unless otherwise indicated. The total amount of DNA was adjusted to 100 ng per well with the empty pCS2 vector. Dual luciferase assays were performed using the STF cell line or by co-transfecting 20 ng of M50 Super 8× TOPFlash plasmid (Addgene plasmid #12456). Cells were harvested in passive lysis buffer (E1960, Promega, Wis.) and the activities of the Firefly and Renilla luciferases were measured sequentially using the Dual-Luciferase Reporter Assay system (E1960, Promega, Madison, Wis.) 48 h post-transfection. […] Luciferase activity was measured 24 h after co-culture.
Cells were plated into 96-well plates and transfected after 24 h in triplicate with Lipofectamine 2000 (Invitrogen, Carlsbad, Calif.). […] Cells were harvested in passive lysis buffer (E1960, Promega, Wisconsin) and the activities of the Firefly and Renilla luciferases were measured sequentially using the Dual-Luciferase Reporter Assay system (E1960, Promega, Madison, Wis.) 48 h post-transfection.

[2] = system: Wnt7aa^−/− mutant zebrafish; test: Transgenic endothelial expression (kdrl promoter) in Wnt7aa−/− zebrafish: hindbrain CtAs and GLUT1 staining; assay type: in vivo, Danio rerio; details: 60 hpf embryos
Excerpt: (A) Dorsal views of the cerebral vasculatures of 60 hpf WT or Wnt7aa^−/− Tg(kdrl:EGFP) embryos. In Wnt7a^−/− mutants, the intracerebral CtAs are lacking. Wnt7, Wnt7a^K190A or Wnt7a^1-278 were transiently expressed in the endothelium of Wnt7aa^−/− embryos under the control of an endothelial-specific kdrl (Vascular endothelial growth factor receptor kdr-like) promoter. The Wnt7 ligands were expressed as a biscistronic construct with BFP (Blue Fluorescent Protein) used as transgenesis marker. In contrast to uninjected embryos, Wnt7, Wnt7a^K190A or Wnt7a^1-278 restore hindbrain CtAs formation in Wnt7aa^−/− mutants as quantified in (B). (C) Anti-GLUT1 staining of the CtAs after transgenic expression of Wnt7, Wnt7a^K190A and Wnt7a^1-278 in 60 hpf Wnt7aa^−/− embryos. Transgenic expression was achieved as in (A).
Mouse Wnt7, Wnt7a^K190A and Wnt7a^1-278 were transiently expressed in the endothelium of Wnt7aa^−/− embryos under the control of an endothelial-specific kdrl (Vascular endothelial growth factor receptor kdr-like) promoter. The Wnt7 ligands were expressed as a biscistronic construct with BFP (Blue Fluorescent Protein) as transgenesis marker.

B1: Wnt7a^1-278: the N-terminal domain of Wnt7a, single domain truncated variant (protein)
chain: LGASIICNKIPGLAPRQRAICQSRPDAIIVIGEGSQMGLDECQFQFRNGRWNCSALGERTVFGKELKVGSREAAFTYAIIAAGVAHAITAACTQGNLSDCGCDKEKQGQYHRDEGWKWGGCSADIRYGIGFAKVFVDAREIKQNARTLMNLHNNEAGRKILEENMKLECKCHGVSGSCTTKTCWTTLPQFRELGYVLKDKYNEAVHVEPVRASRNKRPTFLKIKKPLSYRKPMDTDLVYIEKSPNYC
modifications: left off: small tags and cut ends
notes: the N-terminal domain of Wnt7a, single domain truncated variant
signaling capacity via Gpr124/Reck/Fz1 [1]: ~40%
blood-brain barrier (GLUT1 expression) ([2]; anti-GLUT1 staining of CtAs): restored blood-brain barrier
brain angiogenesis / hindbrain CtAs formation ([2]; transient endothelial expression): triggered GPR124/RECK-dependent brain angiogenesis
